Earlier results as cited in paper PMC12112028.
Like-named read-outs stand apart in the source and are kept apart here.

Columns and labels:
KISS1R (Homo sapiens) [1] = target: KISS1R (Homo sapiens) (UniProt Q969F8)
[2] = target: KISS1R (Rattus norvegicus) (UniProt Q924U1); experiment: competitive binding assay
KISS1R (Homo sapiens) [3] = target: KISS1R (Homo sapiens) (UniProt Q969F8); experiment: competitive binding assay
[4] = target: KISS1R (Rattus norvegicus) (UniProt Q924U1)
[5] = target: KISS1R (Rattus norvegicus) (UniProt Q924U1); remark: listed apart in the source
KISS1R (Homo sapiens) [6] = target: KISS1R (Homo sapiens) (UniProt Q969F8); remark: listed apart in the source
KISS1R (Homo sapiens) [7] = target: KISS1R (Homo sapiens) (UniProt Q969F8); remark: listed apart in the source

Chain of UniProt Q924U1 (Q924U1 whole entry): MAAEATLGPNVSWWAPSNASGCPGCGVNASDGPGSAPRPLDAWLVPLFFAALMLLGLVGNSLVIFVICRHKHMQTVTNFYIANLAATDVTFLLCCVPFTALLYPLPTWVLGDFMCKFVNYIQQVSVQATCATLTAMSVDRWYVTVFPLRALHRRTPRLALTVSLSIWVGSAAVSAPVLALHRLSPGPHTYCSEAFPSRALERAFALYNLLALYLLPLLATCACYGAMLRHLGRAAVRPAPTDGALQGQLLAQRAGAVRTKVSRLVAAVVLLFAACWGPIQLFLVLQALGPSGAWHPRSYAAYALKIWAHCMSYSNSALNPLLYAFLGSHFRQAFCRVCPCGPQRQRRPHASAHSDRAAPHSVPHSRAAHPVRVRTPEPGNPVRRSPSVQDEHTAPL
Chain of UniProt Q969F8 (Q969F8 whole entry): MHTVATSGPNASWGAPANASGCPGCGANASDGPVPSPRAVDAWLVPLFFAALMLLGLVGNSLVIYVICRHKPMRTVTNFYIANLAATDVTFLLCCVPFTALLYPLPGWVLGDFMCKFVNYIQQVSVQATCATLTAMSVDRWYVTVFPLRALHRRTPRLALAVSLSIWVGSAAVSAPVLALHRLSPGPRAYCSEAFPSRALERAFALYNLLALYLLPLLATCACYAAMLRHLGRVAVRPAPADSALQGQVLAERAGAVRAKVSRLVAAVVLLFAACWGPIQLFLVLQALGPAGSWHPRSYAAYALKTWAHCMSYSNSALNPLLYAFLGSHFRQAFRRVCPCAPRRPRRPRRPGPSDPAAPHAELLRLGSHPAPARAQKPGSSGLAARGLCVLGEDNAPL

| Ki (KISS1R (Homo sapiens) [1]) [nM] | Ki [2] [nM] | Ki (KISS1R (Homo sapiens) [3]) [nM] | Ki [4] [nM] | Kd [5] [nM] | Ki (KISS1R (Homo sapiens) [6]) [nM] | Kd (KISS1R (Homo sapiens) [7]) [nM] | Substance |
| --- | --- | --- | --- | --- | --- | --- | --- |
| 4.23 | 2.08 |  |  |  |  |  | KP-13 (from UniProt Q15726) |
|  | 2.04 | 1.65 |  |  |  |  | KP-14 (from UniProt Q15726) |
|  | 1.81 | 1.45 |  |  |  |  | KP-54 (from UniProt Q15726) |
|  |  |  | 1.59 | 1 | 2.33 | 1.9 | KP-10 (from UniProt Q15726) |
